Test results reported in article PMC8573201.
Where a chain is given by its changes, count along the chain named.

Columns and labels:
[1] = target: T1, wild-type human GIP receptor (GIPR) (human) (UniProt P48546)
T1 sequence: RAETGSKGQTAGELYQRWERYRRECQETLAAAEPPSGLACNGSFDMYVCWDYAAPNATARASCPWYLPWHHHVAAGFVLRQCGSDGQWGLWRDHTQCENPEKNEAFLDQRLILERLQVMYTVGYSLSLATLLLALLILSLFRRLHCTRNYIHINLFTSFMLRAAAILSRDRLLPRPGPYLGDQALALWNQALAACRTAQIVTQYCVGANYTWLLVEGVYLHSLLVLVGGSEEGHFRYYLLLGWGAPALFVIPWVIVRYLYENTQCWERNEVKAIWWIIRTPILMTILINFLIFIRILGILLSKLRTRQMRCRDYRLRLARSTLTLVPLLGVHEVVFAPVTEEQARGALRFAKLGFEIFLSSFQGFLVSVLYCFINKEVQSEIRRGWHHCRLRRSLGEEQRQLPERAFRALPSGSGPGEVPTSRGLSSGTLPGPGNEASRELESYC

[2] = target: T2, human GIPR double mutant R190Q-E288G (human) (UniProt P48546)
T2 sequence: T1 sequence with R169Q, E267G

[3] = target: T3, human GIPR variant E288G (human) (UniProt P48546)
T3 sequence: T1 sequence with E267G

[4] = target: T4, human GIPR variant R190Q (human) (UniProt P48546)
T4 sequence: T1 sequence with R169Q

[5] = target: T1, wild-type human GIP receptor (GIPR) (human); remark: listed apart in the source
[6] = target: T2, human GIPR double mutant R190Q-E288G (human); remark: listed apart in the source
[7] = target: T3, human GIPR variant E288G (human); remark: listed apart in the source
[8] = target: T4, human GIPR variant R190Q (human); remark: listed apart in the source
[9] = scale: negative logarithm of molar concentration

Chain of Rluc8-Arrestin-3-Sp1 (P32121 whole entry): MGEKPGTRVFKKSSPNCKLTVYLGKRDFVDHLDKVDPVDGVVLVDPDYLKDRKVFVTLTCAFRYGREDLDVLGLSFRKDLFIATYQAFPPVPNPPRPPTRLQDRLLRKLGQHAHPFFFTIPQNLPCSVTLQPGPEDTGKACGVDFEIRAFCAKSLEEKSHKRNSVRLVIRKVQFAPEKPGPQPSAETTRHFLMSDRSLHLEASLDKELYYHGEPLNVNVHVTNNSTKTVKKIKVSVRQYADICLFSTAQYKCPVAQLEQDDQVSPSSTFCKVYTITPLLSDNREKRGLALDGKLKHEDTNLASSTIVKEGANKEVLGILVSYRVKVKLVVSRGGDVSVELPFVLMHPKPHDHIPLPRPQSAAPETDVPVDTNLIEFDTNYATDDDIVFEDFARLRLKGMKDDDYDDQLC

Substance: Rluc8-Arrestin-3-Sp1 (from UniProt P32121 1-409) (natural protein)
- β-arrestin 2 recruitment in HEK293 cells (BRET between Rluc8-Arrestin-3-Sp1 and mem-linker-citrine-SH3, GRK2 co-expressed) on stimulation with GIP(1-42), Emax [1]: 98 % of WT
- β-arrestin 2 recruitment in HEK293 cells (BRET, GRK2 co-expressed), pEC50 of GIP(1-42) [1, 9]: 9.1
- β-arrestin 2 recruitment in HEK293 cells (BRET between Rluc8-Arrestin-3-Sp1 and mem-linker-citrine-SH3, GRK2 co-expressed) on stimulation with GIP(1-42), Emax [2]: 12 % of WT
- β-arrestin 2 recruitment in HEK293 cells (BRET, GRK2 co-expressed), pEC50 of GIP(1-42) [2, 9]: 8
- β-arrestin 2 recruitment in HEK293 cells (BRET between Rluc8-Arrestin-3-Sp1 and mem-linker-citrine-SH3, GRK2 co-expressed) on stimulation with GIP(1-42), Emax [3]: 8.6 % of WT
- β-arrestin 2 recruitment in HEK293 cells (BRET, GRK2 co-expressed), pEC50 of GIP(1-42) [3, 9]: 9.6
- β-arrestin 2 recruitment in HEK293 cells (BRET between Rluc8-Arrestin-3-Sp1 and mem-linker-citrine-SH3, GRK2 co-expressed) on stimulation with GIP(1-42), Emax [4]: 9 % of WT
- β-arrestin 2 recruitment in HEK293 cells (BRET, GRK2 co-expressed), pEC50 of GIP(1-42) [4, 9]: 9.1
- β-arrestin 2 recruitment in HEK293 cells (BRET, GRK2 co-expressed), EC50 of GIP(1-42) [5]: 880 pM
- β-arrestin 2 recruitment in HEK293 cells (BRET, GRK2 co-expressed), EC50 of GIP(1-42) [6]: 11000 pM
- β-arrestin 2 recruitment in HEK293 cells (BRET, GRK2 co-expressed), EC50 of GIP(1-42) [7]: 230 pM
- β-arrestin 2 recruitment in HEK293 cells (BRET, GRK2 co-expressed), EC50 of GIP(1-42) [8]: 760 pM
